The values that follow are results of earlier work, collected in PMC11084152, “Galf-Specific Neolectins: Towards Promising Diagnostic Tools” (International Journal of Molecular Sciences, 2024).

Details of the data set: method as in PMID 26148048. Particulars: β-D-Galf-substituted surface; read-out: functional affinity value.

B1: hIntL-1: human intelectin-1, galactofuranosyl-binding lectin used as positive control (protein, UniProt Q8WWA0 19-298, looked up)
Intelectin-1: TDEANTYFKEWTCSSSPSLPRSCKEIKDECPSAFDGLYFLRTENGVIYQTFCDMTSGGGGWTLVASVHENDMRGKCTVGDRWSSQQGSKAVYPEGDGNWANYNTFGSAEAATSDDYKNPGYYDIQAKDLGIWHVPNKSPMQHWRNSSLLRYRTDTGFLQTLGHNLFGIYQKYPVKYGEGKCWTDNGPVIPVVYDFGDAQKTASYYSPYGQREFTAGFVQFRVFNNERAANALCAGMRVTGCNTEHHCIGGGGYFPEASPQQCGDFSGFDWSGYGTHVGYS
In the case of B1, the Kd is 85 ± 14 nM.
